Bounds are passed on as bounds.

Experiment in all cases: cell-based or functional assay
The target in test [1] is HA of H5N1 virus strain A4 (avian influenza virus H5N1).
Test [2] deals with HA of H5N1 virus strain B7 (avian influenza virus H5N1).
Test [3] concerns the target HA of H5N1 virus strain A2 (avian influenza virus H5N1).
In test [4] the target is HA of H5N1 virus strain C1 (avian influenza virus H5N1).
The target of test [5] is HA of H5N1 virus strain C2 (avian influenza virus H5N1).
In test [6] the target is HA of H5N1 virus strain A7 (avian influenza virus H5N1).
Test [7] addresses HA of H5N1 virus strain F3 (avian influenza virus H5N1).
Test [8] deals with HA of H5N1 virus strain H2 (avian influenza virus H5N1).
In test [9] the target is HA of H5N1 virus strain A8 (avian influenza virus H5N1).
Test [10] addresses HA of H5N1 virus strain H1 (avian influenza virus H5N1).
Test [11] addresses HA of H5N1 virus strain B8 (avian influenza virus H5N1).
Test [12] has as its target HA of H5N1 virus strain G1 (avian influenza virus H5N1).
Test [13] has as its target HA of H5N1 virus strain A1 (avian influenza virus H5N1).
Test [14] addresses HA of H5N1 virus strain E1 (avian influenza virus H5N1).
Test [15] addresses HA of H5N1 virus strain B4 (avian influenza virus H5N1).
In test [16] the target is HA of H5N1 virus strain E2 (avian influenza virus H5N1).
In test [17] the target is HA of H5N1 virus strain B6 (avian influenza virus H5N1).
The target in test [18] is HA of H5N1 virus strain D1 (avian influenza virus H5N1).
Test [19] has as its target HA of H5N1 virus strain A3 (avian influenza virus H5N1).
For test [20], the target named is HA of H5N1 virus strain F2 (avian influenza virus H5N1).
Test [21] has as its target HA of H5N1 virus strain C3 (avian influenza virus H5N1).
Test [22] concerns the target HA of H5N1 virus strain A6 (avian influenza virus H5N1).
The target in test [23] is HA of H5N1 virus strain B1 (avian influenza virus H5N1).
In test [24] the target is H5 virus strains (thirty-four strains of H5N1 viruses).
The target in test [25] is non-H5 viruses (14 strains; H1~H13, Chicken NDV).
The target of test [26] is HA of H5N1 virus strain B3 (avian influenza virus H5N1).
Test [27] has as its target HA of H5N1 virus strain B5 (avian influenza virus H5N1).
Test [28] addresses HA of H5N1 virus strain A5 (avian influenza virus H5N1).
For test [29], the target named is HA of H5N1 virus strain D2 (avian influenza virus H5N1).
The target in test [30] is HA of H5N1 virus strain B2 (avian influenza virus H5N1).

B1: 4D1 chimeric antibody (antibody, V domains shown)
VH: QVQLQQPGAELVKPGASVNLSCKASGYTFTSYWMHWVKQRPGQGLEWIGEIDPSDSFTTYNQNFKDRATLTVDKSSSTAYMQLRSLTSEDSAVYYCARGGPGDFRYAMDYWGQGTSVTVSS
VL: DILMTQSPSSMSVSLGDTVSITCHASQGISSNIGWLQQKPGKSFKGLIYHGTNLEDGVPSRFSGSGSGADYSLTISSLESEDFADYYCVQYVQFPYTFGGGTKLEIKR
Turning to B1, the HI test result was 6 n in test [1]; 7 n in test [2]; 5.5 n in test [3]; 7.5 n in test [4]; 6 n in test [5]; 4 n in test [6]. Moreover, the HI test result in [7] turned out to be 1 n; in test [8] it was 1 n; in test [9], 5.5 n; in test [10], 1 n; in [11], 4 n; in test [12] it was 1 n. Also, the HI test result in test [13] was 5 n; in test [14] it was 5.5 n; in test [15], 5.5 n; in test [16] it was 7.5 n; in [17], 6.5 n; in test [18] it was 5 n. Besides, the HI test result in test [19] is 5.5 n; in test [20] it was 1 n; in test [21], 4 n; in test [22], 4.5 n; in [23] it was more than 8 n.

B2: monoclonal antibody 2F2 (antibody, V domains shown)
VH: QVQLKESGPGLVAPSQRLSITCTVSGFSLTGYGVHWIRQSPGKGLEWLGMIWAEGRTDYNSVLKSRLSINKDNSRSQVFLEMNSLQTDDTARYYCAREVITTEAWYFDVWGQGTSVTES
VL: DIVMTQSPATLSVTPGDRVSLSCRASQSISDYLYWYQQKSHESPRLLIKYASQSISGIPSRFSGSGSGSDFTLTINSVEPEDVGMYYCQNGHTFPLTFGAGTKLEIKR
As to B2, the HI assay: positive number/total virus number (of 34 strains) in [24] was found to be 28. For the same molecule, in test [25], the HI assay: positive number/total virus number (of 14 strains) was determined as 0.

B3: 4D1 single chain antibody (scFv)
scFv: QVQLQQPGAELVKPGASVNLSCKASGYTFTSYWMHWVKQRPGQGLEWIGEIDPSDSFTTYNQNFKDRATLTVDKSSSTAYMQLRSLTSEDSAVYYCARGGPGDFRYAMDYWGQGTSVTVSSGGGGSDILMTQSPSSMSVSLGDTVSITCHASQGISSNIGWLQQKPGKSFKGLIYHGTNLEDGVPSRFSGSGSGADYSLTISSLESEDFADYYCVQYVQFPYTFGGGTKLEIKRA
Turning to B3, the HI titer (n) (n (dilution 2^n)) is more than 8 in test [2]; more than 8 in test [3]; more than 8 in test [5]; 6 in test [6]; 3 in [7]; 4 in test [8]. Besides, the HI titer (n) (n (dilution 2^n)) in test [9] was more than 8; in [10], 6; in test [11] it was more than 8; in [12], 3.5; in [13], more than 8; in [14] it was 1. Also, the HI titer (n) (n (dilution 2^n)) in test [15] was more than 8; in test [26], more than 8; in test [27], 0; in [16], 1; in test [28], more than 8; in test [17] it was more than 8. The HI titer (n) (n (dilution 2^n)) in test [18] is more than 8; in test [29], 7.5; in [30], 0; in test [19], more than 8; in test [20], 5; in test [21], more than 8. Moreover, the figures for the HI titer (n) (n (dilution 2^n)) in test [22] and in test [23] were 7 and more than 8, respectively.
